# Source: patent US20110165175A1 (AFFIMED THERAPEUTICS, published 2011)
# Where “and” joins values, the source holds several entries; their conditions need not be identical. Identical values can stand only once.
# B1: ReoPro (abciximab, Centocor/Eli Lily) (Fab, INN chains, looked up, V domains shown)
# VH: EVQLQQSGTVLARPGASVKMSCEASGYTFTNYWMHWVKQRPGQGLEWIGAIYPGNSDTSYIQKFKGKAKLTAVTSTTSVYMELSSLTNEDSAVYYCTLYDGYYVFAYWGQGTLVTVSA
# VL: EIVLTQSPVTLSVTPGDSVSLSCRASRDISNNLHWFQQTSHESPRLLIKYASQSMSGIPSRFSGSGSGTDFTLSINSVETEDFGMYFCQQTNSWPYTFGGGTKLEIK
# modifications: Fab
# B2: MB9 scFv (scFv)
# scFv: MAEVQLVQSGAEVNKPGASVKVSCKASGYTFTGYYMHWVRQAPGQGLEWMGWINPNSGGTNYAQKFQGWVTMTRDTSISTAYMELSRLRSDDTAVYYCARGRALYNRNDRSPNWFDPWGQGTLVTVSSGSASAPTLKLEEGEFSEARVQAVLTQPPSVSVAPGQTARITCGGNNIGSKSVQWYQQKPGQAPVLVVYDDSDRPSGIPERFSGSNSGNMATLTISRVEAGDEADYYCQVWDSSSDHVVFGGGTKLTVLGQPKAAPSVTLFPPSAAAGSHHHHHH
# notes: Human scFv from the natural IgM phage library, 31 kDa, detected through a His tag; also called clone MB9; MA2
# B3: human anti-gpIIb/IIIa single chain antibody (scFv) SCE5 (scFv, V domains shown, not shown: small tags and cut ends)
# VH: QVQLQESGGGLVQPGGSLRLSCAASGFMFSRYAMSWVRQAPGKGPEWVSGISGSGGSTYYADSVKGRFTVSRDNSKNTLYLQMNSLRAEDTAVYYCARGATYTSRSDVPDQTSFDYWGQGTLVTVSS
# VL: SSELTQDPAVSVALGQTVRITCQGDSLRNFYASWYQQKPGQAPTLVIYGLSKRPSGIPDRFSASSSGNTASLTITGAQAEDEADYYCLLYYGGGQQGVFGGGTKLTVL
# modifications: linker and His tag
# Tests used:
# [1] = molecular target: platelet integrin receptor GPIIb/IIIa (alpha IIb/beta 3), activated state, on ADP-activated human platelets (human) (UniProt P08514); assay: flow cytometry, inhibition of fibrinogen binding to ADP-activated platelets in whole blood
# [2] = molecular target: T1, platelet integrin receptor GPIIb/IIIa (alpha IIb/beta 3), activated state, on ADP-activated human platelets (human, UniProt P08514 32-1039; P05106 27-788); assay: FACS, inhibition of fibrinogen binding to activated human platelets
# T1 construct: whole, on cells; The assays were on whole platelets
# [3] = molecular target: platelet integrin receptor GPIIb/IIIa (alpha IIb/beta 3), activated state, on ADP-activated human platelets (human) (UniProt P08514); assay: flow cytometry, ADP-activated platelets in diluted human whole blood, scFv at 4.9×10^-3 µg/mL, background of secondary reagent subtracted
# [4] = molecular target: platelet integrin receptor GPIIb/IIIa (alpha IIb/beta 3), non-activated state, on non-activated human platelets (human) (UniProt P08514); assay: flow cytometry, non-activated platelets in diluted human whole blood, scFv at 3.9×10^-2 µg/mL, background of secondary reagent subtracted
# [5] = molecular target: platelet integrin receptor GPIIb/IIIa (alpha IIb/beta 3), activated state, on ADP-activated human platelets (human) (UniProt P08514); assay: flow cytometry, ADP-activated platelets in diluted human whole blood, scFv at 3.9×10^-2 µg/mL, background of secondary reagent subtracted
# [6] = molecular target: platelet integrin receptor GPIIb/IIIa (alpha IIb/beta 3), non-activated state, on non-activated human platelets (human) (UniProt P08514); assay: flow cytometry, non-activated platelets in diluted human whole blood, scFv at 2.0×10^-3 µg/mL as printed, background of secondary reagent subtracted
# [7] = molecular target: platelet integrin receptor GPIIb/IIIa (alpha IIb/beta 3), activated state, on ADP-activated human platelets (human) (UniProt P08514); assay: flow cytometry, ADP-activated platelets in diluted human whole blood, scFv at 2.0×10^-3 µg/mL as printed, background of secondary reagent subtracted
# [8] = molecular target: platelet integrin receptor GPIIb/IIIa (alpha IIb/beta 3), non-activated state, on non-activated human platelets (human) (UniProt P08514); assay: flow cytometry, non-activated platelets in diluted human whole blood, scFv at 4.9×10^-3 µg/mL, background of secondary reagent subtracted
# [9] = molecular target: platelet integrin receptor GPIIb/IIIa (alpha IIb/beta 3), activated state, on ADP-activated human platelets (human) (UniProt P08514); assay: flow cytometry, ADP-activated platelets in diluted human whole blood, scFv at 0.1 µg/mL, background of secondary reagent subtracted
# [10] = molecular target: platelet integrin receptor GPIIb/IIIa (alpha IIb/beta 3), non-activated state, on non-activated human platelets (human) (UniProt P08514); assay: flow cytometry, non-activated platelets in diluted human whole blood, scFv at 9.8×10^-3 µg/mL, background of secondary reagent subtracted
# [11] = molecular target: platelet integrin receptor GPIIb/IIIa (alpha IIb/beta 3), activated state, on ADP-activated human platelets (human) (UniProt P08514); assay: flow cytometry, ADP-activated platelets in diluted human whole blood, scFv at 9.8×10^-3 µg/mL, background of secondary reagent subtracted
# [12] = molecular target: platelet integrin receptor GPIIb/IIIa (alpha IIb/beta 3), non-activated state, on non-activated human platelets (human) (UniProt P08514); assay: flow cytometry, non-activated platelets in diluted human whole blood, scFv at 0.1 µg/mL, background of secondary reagent subtracted
# [13] = molecular target: platelet integrin receptor GPIIb/IIIa (alpha IIb/beta 3), activated state, on ADP-activated human platelets (human) (UniProt P08514); assay: flow cytometry, ratio against non-activated platelets at the same scFv concentration (FIG. 23 B)
# [14] = molecular target: platelet integrin receptor GPIIb/IIIa (alpha IIb/beta 3), activated state, on ADP-activated human platelets (human) (UniProt P08514); assay: flow cytometry, inhibition of fibrinogen binding to ADP-activated platelets in whole blood, 4-parameter logistic fit
binder,measurement,setting,value
B1,EC50,[1],0.16 µg/mL
B2,IC50,[2],1.1 µg/mL and 35 nM
B3,fluorescence signal value,[3],0.265
same,fluorescence signal value,[4],0.05
same,fluorescence signal value,[5],2.84
same,fluorescence signal value,[6],0.027
same,fluorescence signal value,[7],1.33
same,fluorescence signal value,[8],0.013
same,fluorescence signal value,[9],4.15
same,fluorescence signal value,[10],0.015
same,fluorescence signal value,[11],0.612
same,fluorescence signal value,[12],0.16
same,fluorescence on activated platelets divided by fluorescence on non-activated platelets,[13],10 times
same,concentration at which the inhibitory effect starts,[1],0.1 to 0.2 µg/mL
same,concentration of maximal inhibitory effect,[1],10 µg/mL
same,EC50,[14],0.94 µg/mL
